The values below come from the DeepSol protein solubility set.

The data set in a line: soluble on expression in E. coli; label from the status in PepcDB or PDB records.
“MSYVIDRRLNGKNKSTVNRQRFLRRYRDHIKKAVEEAVSRRSITDMEHGEQISIPGRDIDEPVLHHGRGGKQTVVHPGNKEFTTGEHIARPQGGAGGKGPGKAGNSGEGMDEFSFQITQEEFLEFMFEDLELPNLVKRNLTGTDTFKTVRAGISNEGNPSRINIIRTLRSAHARRIALSGSSRAKLREATSELERIKREEPDNFGDIQALEVEIDRLKARIRRVPYLDTFDLKYNLLVKQPNPSSKAVMFCLMDVSGSMTQATKDIAKRFFILLYLFLKRNYDKIDVVFIRHHTSAREVDEEEFFYSRETGGTIVSSALKLMQEIMAARYPSSDWNIYAAQASDGDNWNDDSPICREILTKQIMPFVQYYTYVEITPREHQALWYEYERIGDDFADTFAQQQLVSAGDIYPVFRELFQRRLVSAAALEHHHHHH”: the “soluble on expression in E. coli” value is on record as “not soluble”. The entry for “MSYYHHHHHHLESTSLYKKAGFMADQLTPHLEIPTAIKPRDGRFGSGPSKVRLEQLQTLTTTAAALFGTSHRQAPVKNLVGRVRSGLAELFSLPDGYEVILGNGGATAFWDAAAFGLIDKRSLHLTYGEFSAKFASAVSKNPFVGEPIIITSDPGSAPEPQTDPSVDVIAWAHNETSTGVAVAVRRPEGSDDALVVIDATSGAGGLPVDIAETDAYYFAPQKNFASDGGLWLAIMSPAALSRIEAIAATGRWVPDFLSLPIAVENSLKNQTYNTPAIATLALLAEQIDWLVGNGGLDWAVKRTADSSQRLYSWAQERPYTTPFVTDPGLRSQVVGTIDFVDDVDAGTVAKILRANGIVDTEPYRKLGRNQLRVAMFPAVEPDDVSALTECVDWVVERL” is “soluble”; for “MTAAIAAPAYDAIVIGSGIGGLVTATQLAAKGAKVLVLERYLIPGGSAGWFEREGYRFDFGASIIFGFGDPGTTNLLTPPLADVGQALETIPDPVQIHYHLPNQLDLKVHRDYEAFLQELIAQFPQEAEGIRRFYDECWQVFNCLNAMPLLSLEEPKYLFNVFLQHPLACLGLVKYLPQNVGDIARRYIRNPDLLKFIDMECYCWSVVPATMTPMINAGMVFSDRHYGGINYPKGGVGRIAEKLVAGLEAKGSSIRYKARVTRILTEKGRAIGVELADGEKLYAKRIISNATRWNTFG” it is “soluble”. As for “MTAGLHHAAANGVRVRPFRRHPTKRYILTGAPGAGKTVLLRALETAGEVVVEEAATDVIALAQAQGVDQPWTDPGFIDTIVGLQRQRQTRAVGDRIFFDRSPVCALALARFLGHPVSALLEDELARIVREGVYQRRVFLVQGLGFITPTAARRISLDDAQAFEEVHQAAYTELGFELAPIAPGPVGDRVRRVLGAVLEHHHHHH”, the entry is “not soluble”; as for “MTALPLSAVTVVSVCYNSDRLIRDLVTAIPDETPIILVDNGHTNTFADLPPHRNVIIVKLDHNLGFGRGCNAGADVAQTPWILFLNPDARLNPGAIEGLLQAAAQYPSAIAFNPRIYNEDGSPYFKRRSWLLPRQHYMKKGWPSADAVVPVLSGAALFVSKKSFDYIGGFDPSIFMYHEDDDLSLRLSALGELRFVRNSTVVHFAGYSSGRSPEIARFKAYHMAQSKIYAGQKHHRPFAKTSTLLQGCLLLLSPHVFFSARRRAKALGFLHGALAKIWSELLNAASTSSQKKT”, “soluble”; as for “MTARYIAIDWGSTNLRAWLYQGDKCLESRQSEAGVTRLNGKSPDAVLAEVTTHWRDSATPVVMAGMIGSNVGWQNAPYLPVPALFSAIGEQLTAVGDNIWIIPGLCVSREDNHNVMRGEETQLLGACELSPSSVYVMPGTHCKWVQTDTQQIHDFRTVMTGELHHLLLRHSLVGAGLPEQEVSGDAYAAGLERGLNSPAVLPSLFEVRASHVLGHLAREQVSDFLSGLLIGAEVASMSESFAAQQAITLVAGPALISRYQQAFSAIGRDVSTVDGDMAFQAGIRSIAHAVAN”, “not soluble”.

“MTAYGFIIPVFNHPHYLDQLVETLSRYQLPMILVNDGSNEECSTKLRVLDQSYTQVHLVEHAYNQGKGQAVITGLHYADQLGLSHALQIDCDGQHQWADVEQFLQLSQQYPEKVIIGQPIFDASIPKKRLYGRYLTHVWVWINSLSFEIKDSMCGFRVYPLGPTLKVIKQAKFQPRMGFDSEILVRLKWENLAFINVPTAVIYPEHGILEHHHHHH”: the “soluble on expression in E. coli” value was “not soluble”. The entry for “MTDDNDNKNTELPMSASEVTAGTKIVRRAANQKPSRVVADICVVGSGAAGMSAAIEGARAGRKVVLVDSLPALGGQAVNSIIGTFCGLFSNGSDGYQFTHGIADDLLGDLGAQENALFYRRGPHTTVVYYDEVALGRWVEKAMLAAGVTVIVGAVMRNVRVAGRRVTGIDLSTRYGDVEVEANGFVDASGDAALVWQAGFACREPDDGPIYGTQMLIVENIDESKVPSREELPARMREKAGDYGLLRREGLSFVIPGRGVAAMNMTHVETPLEPLEASRKGIEGKDQADRAFAFLRNEFPACFGKARIRAYGLPGIRQTRWIVGRQQLSVDDVRAGTKFEDAIGRTAWPIELHDHGSGHHWHIFDKDHVHYVPFGSLTPQEAENIVAAGRCIDADKAALSSVRVMGPCMAMGAAAAHALDLAGSGSVHQIDIDALKWRVRDNLERTDLEHHHHHH” is “not soluble”. The entry for “MTDETENVPKTEQEVPNDPESEKEVKEDAKEEVKDLIPEFYSQHGGDPRLIDIAASVWLSGIPTDFITDTYEQFCETIKNIMKMGHKLDVSTVSKIVRIPNLDSNAKNSEHALRALICFSDKKHIYRMMTREAEFAKEEMKVELIEELPSDALEISEDDKCLLLNGLVEAEDAGDDVDVGGGDDDEIDELMDHDDEGGHDEHEEDEESDVKKEEEKGSEKKEKKPEPPKKKVYEDEDEKAPFEMYWDGAPEFQWRLCEGPRDEKKLIIDNLLWADLNNVFIYRTIQKSTTCEINFPTRFNSDGNRTCHGKLTLFFPGNVAIMDEALKHLVYFRSGDGRRIKVFLPQTTVSLKRKEEFEGKLGRVIKPTERMMQLIVKILPDGYTPTLDEACAWFPLQAVIQCDLVNDEMGNPCAVVKFETAEEAVAAHAGKSFVTIVQKSMITVKDSEGNEKEEEKETETHCNVFMRGGIIMGF” is “not soluble”; for “MTDIAQLLGKDADSLLQHRCMTIPSDQLYLPGKDYVDRVMIDNNRPPAVLRNMQTLYNTGRLAGTGYLSILPVDQGVEHSAGASFAANPRYFDPKNIVELAIEAGCNCVASTYGVLASVSRRYAHRIPFLVKLNHNETLSYPTEYDQTLYASVEQAFNMGAVAVGATIYFGSEQSRRQIEEISAAFERAHELGMVTVLWAYLRNSSFKKDGVDYHVSADLTGQANHLAATIGADIVKQKMAENNGGYKAVNFGYTDDRVYSKLTSDNPIDLVRYQLANCYMGRAGLINSGGADGGDTDLGDAVRTAVINKRAGGMGLILGRKAFKKSMADGVKLINAVQDVYLDSKVTIA” it is “not soluble”.

In the case of “MTDKLPFALYSRCVKAGKRFYYIDAKRDSKGNDYLVITESNSAEEGSAMTRHKVFLYREDFAKFTEAFLDVLKSFEKRSGVSGCEQAIGLSELEQSLSDMTTGVEGLAESSDSILEEDEPLKIDFDF”, the “soluble on expression in E. coli” value is reported as “not soluble”.

“MTDRRQYAPATQRNRETIAAVLQEYLPSQGSILEIASGTGEHACFFAPLFSPRWWITSDPDPLCRESIMAWRDHQALANFQSPLDLDVNDQVWPVEREILREPVTSIVAINLIHISPWESCLGLLTGAERILPEGGILYLYGPYRQKGVPTAPSNEAFDQSLQSRNPAWGLRQLEDVIGEAGKRNLHNQAIIPMPANNLSVIFQKGLEHHHHHH”: the “soluble on expression in E. coli” value is on record as “not soluble”. The entry for “MTDTARKIVAQPLSAAAFAPFGQVIDTAQVASRPMNDGRARRFHDLAEIEVIGNGARVVVGLVEAEPYAVPLWLNLVERHPLGAQAFVPLNAAPFLVVVCPDESGKPGAPQAFITAPHQGVCYARNTWHSVLTPFGAAQDFVVIDRGGPGVNLEEHLFDEPWIVHLSTSGLEHHHHHH” is “soluble”. As for “MTDVVVAGGGLAGLVAARHLAESGRDVTVFEQRSDVGGRVRTVHEDGYTFDRGFQVMFTAYPAAKRELDIEALAPRTFTPGATIASPNHRSVLSDPLRNPSAAPQTLLNTDVRTADKLRLFRLQRELAGVEPVELLSRGGTTIREYLADYGFSKRFVERFAAPFYGGITLDRSLGTDSSIFEYTYKMLSEGEIFVPADGMQAMPRQLADRARSAGATIETDAPVTELETHEGEVTAEVGRETVTAESAVVATDPQTAAELTDIDAIPTEPVGCVTQYFALPTNRAPATGQRIILNATDDRPNTVAPLSAVASEYAPAGMELYSATFLGTPEEDDAELAAEVRAALQSWYPNASFEALELLRTDRVPLSQFAQPPGYRDALPDPTAPEGNAVLAGDYTRWSAIQGALESGKVAADLLRLEHHHHHH”, the entry is “not soluble”. As for “MTDWLYRYPKLYPGFLLKRYKRFFADVQLTSGEVVTAHCPNTGPMTGVSKIGSPVQLSQSDNPNRKLAYTLELIQVQEQEPTWVGVNTALPNRVIKLALEKFLFPELRDYTQVKGEVIYGKDKKSRVDFYLTGSEKQSPIYLEVKNTTWTQGNLALFPDTETTRGQKHLRELMEVLPHSRAVMLYFINRGDCPEFAPGDSTDPVYGKLLRQAITVGLEVLPCRFDVSPEGIRYLGLAKLKT”, the entry is “not soluble”. Turning to “MTEAEDFAQLLQKLQNASPALPEGTSSTPTPSSSTGLLPNGKKTKGRVKIKMEYINNKLRRYTTFSKRKTGIMKKAFELSTLTGTQVMLLVASETGHVYTYATPKLQPMISSDTGKAMIQSCLNAPGGDGSDVQPSRTEFTFDSGNGGNGMRKRKMLSDVMSAESSNNSPSMPNFTPFLAPSMAPLFSTFGEDDYNNDESGDDSDSEEASSDIKEEYQGSPTMVKQETTEIDSVTASLQQRIKEAMRQAASNKQAIKKAKITPPSSNMNNAAFLNPFLLQGGANASNLLATAARKGDDAGSLTSNPFLSMGLNLQQLIESAAIASNE”, the “soluble on expression in E. coli” value is on record as “not soluble”.

With “MTEFYSDTIGLPKTDPRLWRLRTDELGRESWEYLTPQQAANDPPSTFTQWLLQDPKFPQPHPERNKHSPDFSAFDACHNGASFFKLLQEPDSGIFPCQYKGPMFMTIGYVAVNYIAGIEIPEHERIELIRYIVNTAHPVDGGWGLHSVDKSTVFGTVLNYVILRLLGLPKDHPVCAKARSTLLRLGGAIGSPHWGKIWLSALNLYKWEGVNPAPPETWLLPYSLPMHPGRWWVHTRGVYIPVSYLSLVKFSCPMTPLLEELRNEIYTKPFDKINFSKNRNTVCGVDLYYPHSTTLNIANSLVVFYEKYLRNRFIYSLSKKKVYDLIKTELQNTDSLCIAPVNQAFCALVTLIEEGVDSEAFQRLQYRFKDALFHGPQGMTIMGTNGVQTWDCAFAIQYFFVAGLAERPEFYNTIVSAYKFLCHAQFDTECVPGSYRDKRKGAWGFSTKTQGYTVADCTAEAIKAIIMVKNSPVFSEVHHMISSERLFEGIDVLLNLQNIGSFEYGSFATYEKIKAPLAMETLNPAEVFGNIMVEYPYVECTDSSVLGLTYFHKYFDYRKEEIRTRIRIAIEFIKKSQLPDGSWYGSWGICFTYAGMFALEALHTVGETYENSSTVRKGCDFLVSKQMKDGGWGESMKSSELHSYVDSEKSLVVQTAWALIALLFAEYPNKEVIDRGIDLLKNRQEESGEWKFESVEGVFNHSCAIEYPSYRFLFPIKALGMYSRAYETHTL”, the “soluble on expression in E. coli” value was “soluble”. As for “MTEIKYKVITKDAFALPYTIIKAKNQPTKGVIVYIHGGGLMFGKANDLSPQYIDILTEHYDLIQLSYRLLPEVSLDCIIEDVYASFDAIQSQYSNCPIFTFGRSSGAYLSLLIARDRDIDGVIDFYGYSRINTEPFKTTNSYYAKIAQSINETMIAQLTSPTPVVQDQIAQRFLIYVYARGTGKWINMINIADYTDSKYNIAPDELKTLPPVFIAHCNGDYDVPVEESEHIMNHVPHSTFERVNKNEHDFDRRPNDEAITIYRKVVDFLNAITMV”, the entry is “soluble”.
